# Test: soluble on expression in E. coli; label from the status in PepcDB or PDB records
row,Sequence,soluble on expression in E. coli
1,MKLEDLPKYYSPKSPGLTDASASTSKDALSITDVMAAQGMTQNRAEMGFSAFLGKMGISMNDRARATELLADYALSRCDRVAALRKLPAEIKPVVMRIMASYAFEDYARSAASKKQCPCCYGEKFIESVVFTNKVQYPDGKPPVWAKCTKGVYPSYWEEWKKVREVVKVACPECGGKGEVSTACKDCRGRGVAIHREESVKRGMPVIRDCQRCGGRGYERLPSTEVFNAICEVTNQITRASWEKTVKKFYDALVTRFDIEEAWAERQLKKVTR,not soluble
2,GHMLDVAPPVITPRGTKIEPSAGAPFEAVRVARDVLHTSRTAALATLDPVSGYPYTTATNIGIEPDGTPFFFAAGLTLHARNMETDARISVTLAPFGKGDALTLPRLTLVGRADRIGPDEVPLAIARYIARYPKAKLYLSLPDTRLYRLRTEGVQINGGPARNASNITPADLRTDLSGAEELMAAAESEATRLNAIKGEASRLAVLAGAKTGRWKITSIDPDGIDLASASDLARLWFAERVETLKQFEKALAQLLKGS,soluble
3,MDLSQLTPRRPYLLRAFYEWLLDNQLTPHLVVDVTLPGVQVPMEYARDGQIVLNIAPRAVGNLELANDEVRFNARFGGIPRQVSVPLAAVLAIYARENGAGTMFEPEAAYDEDTSIMN,soluble
4,MGSDKIHHHHHHMQINNKIIISCSIIASLVSQTTYAQINTGTTSNKLTAFIHAELIIAPGKRLSDATLLVGNNRIKAIIEHGDIPAGAFKIDLSGYTIYPGFIDPFTDYGIEFEYPKLGLTRPVYGIKRIGGNADNGAIHSEKEWFNYVYPNKERAKEWINNGFTSVQSSKLDGIFRGTGVSLSLADKTANEVIYRARSQPFMAFDKGSSEQDYPSSLMGSIALIRPRIQIISATLGQNGEEGVSC,not soluble
5,MSLQMKPEDILENIFYFRVCSYTEQIALVNHLEKFISENKDVKVVIVDSITFHFRQDYDDLAQRTRVLSEMALKFMKLAKKFSLAVVLLNQVTTKFSEGSFQLALALGDSWSHSCTNRVILYWNGDERYAYIDKSPSLPSASASYTVTSRGLRNSSEGHHHHHH,not soluble
6,MNAEDVKGFFASRESLDMEQYLVLDYYLESVGDIETALAHFCSEQSTAQWKRVGVDEDFRLVHAAKVIDYEVIEELEQLSYPVKHSETGKIHACRVTIAHPHCNFGPKIPNLLTAVCGEGTYFTPGVPVVKLMDIHFPDTYLADFEGPKFGIEGLRDILNAHGRPIFFGVVKPNIGLSPGEFAEIAYQSWLGGLDIAKDDEMLADVTWSSIEERAAHLGKARRKAEAETGEPKIYLANITDEVDSLMEKHDVAVRNGANALLINALPVGLSAVRMLSNYTQVPLIGHFPFIASFSRMEKYGIHSKVMTKLQRLAGLDAVIMPGFGDRMMTPEEEVLENVIECTKPMGRIKPCLPVPGGSDSALTLQTVYEKVGNVDFGFVPGRGVFGHPMGPKAGAKSIRQAWEAIEQGISIETWAETHPELQAMVDQSLLKKQD,soluble
7,MKLTPEMLTGKSREHLVNLPTTHSSNHFLQTQAVQAFQALQQSAAKNGFNLQPASSFRDFERQQLIWNSKFKGERKVHDDAGKALDLNQLDDWQKCQAILRWSALLRLVVIIGERKWIFLILIFCHEVNLYNWSLGNMKKAATSLN,not soluble
8,MSLSRSEEMHRLTENVYKTIMEQFNPSLRNFIAMGKNYEKALAGVTYAAKGYFDALVKMGELASESQGSKELGDVLFQMAEVHRQIQNQLEEMLKSFHNELLTQLEQKVELDSRYLSAALKKYQTEQRSKGDALDKCQAELKKLRKKSQGSKNPQKYSDKELQYIDAISNKQGELENYVSDGYKTALTEERRRFCFLVEKQCAVAKNSAAYHSKGKELLAQKLPLWQQACADPSKIPERAVQLMQQVASN,soluble
9,MGSDKIHHHHHHMHSMALPESSYERLRAADCADEIAYVRACLRLYFSGAAAAAGDVSMPNLSAAAVADIARLNKVATFVLKVLSRAPVGERPAELFQWLDTYRRRTVSMNAACLMDSMVIHQALRDRQIDFVFLKGPFQQHLLYDDHFMKPSGDVDILVSPAGFSRARDALRSIGYEVSGKSRSVWWVRFLGEQHMIRGNGPSTVDLHYRLQQPGSPSPRDADGFLRRKRLVEITGTEVPFTSAADTLMLSCISVAKALFNHEPCAGYVCDIRASANRLGEADQQRVLDAAVSQGLDDTLLLGLRAADVLLGATGTLLSERAKPILSRIGNEDLLNMVIAPWLSSLRWPQRRTVLWELCGRAPVRYLAEAAWAASADISRRIFERPASP,not soluble
10,TMSSCVSSQPSSNRAAPQDELGGRGSSSSESQKPCEALRGLSSLSIHLGMESFIVVTECEPGCAVDLGLARDRPLEADGQEVPLDSSGSQARPHLSGRKLSLQERSQGGLAAGGSLDMNGRCICPSLPYSPVSSPQSSPRLPRRPTVESHHVSITGMQDCVQLNQYTLKDEIGKGSYGVVKLAYNENDNTYYAMKVLSKKKLIRQAGFPRRPPPRGTRPAPGGCIQPRGPIEQVYQEIAILKKLDHPNVVKLVEVLDDPNEDHLYMVFELVNQGPVMEVPTLKPLSEDQARFYFQDLIKGIEYLHYQKIIHRDIKPSNLLVGEDGHIKIADFGVSNEFKGSDALLSNTVGTPAFMAPESLSETRKIFSGKALDVWAMGVTLYCFVFGQCPFMDERIMCLHSKIKSQALEFPDQPDIAEDLKDLITRMLDKNPESRIVVPEIKLHPWVTRHGAEPLPSEDENCTLVEVTEEEVENSVKHIPSLATVILVKTMIRKRSFGNPFEGSRREERSLSAPGNLLTKKPTRECESLSELKGTKKKKGLDSMTSTVAAGWLDRRV,soluble
11,MHHHHHHSSGVDLGTENLYFQSMLPHSVLLEIQKELLDYKGVGISVLEMSHRSSDFAKIINNTENLVRELLAVPDNYKVIFLQGGGCGQFSAVPLNLIGLKAGRCADYVVTGAWSAKAAEEAKKFGTINIVHPKLGSYTKIPDPSTWNLNPDASYVYYCANETVHGVEFDFIPDVKGAVLVCDMSSNFLSKPVDVSKFGVIFAGAQKNVGSAGVTVVIVRDDLLGFALRECPSVLEYKVQAGNSSLYNTPPCFSIYVMGLVLEWIKNNGGAAAMEKLSSIKSQTIYEIIDNSQGFYVCPVEPQNRSKMNIPFRIGNAKGDDALEKRFLDKALELNMLSLKGHRSVGGIRASLYNAVTIEDVQKLAAFMKKFLEMHQL,soluble
12,NFCVYMCPYSRVQSVLYDNDTIMTVYDYERGGKVFDPKGIKLWKKPETPNAECTGCELCVKVCPTHIDIRKGMQLECINCLECADAC,not soluble
13,MAELYYEDNRAYSYTQSFLKMFYLIFGQAYSRDYLSIDKYNKLCSNKDTKIHMPKLKIDEETNIVFFSKEEMQQLDNYFKGTNVETAYLLGKYCGLRINECFGLKWDKIDLKNGTITIDRQMQYQNGMIKLVPLKTRNAKRKIYMCSKLKEYFTNLMQQQEKYKTELAELRQQKQTLIKDIQGNTISSLELVNSMPIGRMQTVNAMKYHTRTLKEKYHIDFKYHYLRHTYGTTLATLNTPEHLLCNQMGHSSSSVTHKYYIGISKQGIDELLKNLERV,not soluble
14,MSLKRVLLLGGAGFIGYHLGRHLVERSDCRVTLVDNFFRSKQDEELDTLLQSSAVDIVEGDLTERSTFDQLDDEYDHVYALAAVVGVGYTEDMPEEVWRINTAITLNTFEWLRESSVSRVLFASTSETYAGTVEEFGAEIPTPEDVPLSITDITQPRFTYAVTKMLGEAGIAHYAQAYDFEQVTVRFHNVYGPRMGFKHVIPQVVERFHEAEDPFTVYGYDQTRAFCHVDDAVRGVVQAMETPEAAGRTYHIGDDRHEITIETLIRYIGDLMDFHGEYEQGPSHAGSVSRRCPDVDRAREVFGYEPQVHWKEGVRETVEWYADYYRSGREVFEEGHHHHHH,soluble
15,MTHPIIHDLENRYTSKKYDPSKKVSQEDLAVLLEALRLSASSINSQPWKFIVIESDAAKQRMHDSFANMHQFNQPHIKACSHVILFANKLSYTRDDYDVVLSKAVADKRITEEQKEAAFASFKFVELNCDENGEHKAWTKPQAYLALGNALHTLARLNIDSTTMEGIDPELLSEIFADELKGYECHVALAIGYHHPSEDYNASLPKSRKAFEDVITIL,soluble
16,MGSDKIHHHHHHMRKKNYYLVSDGKLRRHENTIYFENEDGKRPIPINSIYAIYALGSLSITSKAISLLAKEGVCIHFFNRYGYYIGSFYPRESLVSGEVVLRQAEHHLDSEKRLHLARAFVEGAILNMARVLKKAEQDDSDVIASLQHLSSAKSIVELMGAEAAARNAYYTKFDEILKNFEFGKRSRMPPENEVNAMISFGNSLLYSAVLSEIYHTQLNPAISYLHEPSERRFSLALDIAELFKPVIVDRLIFYLVNNGIVTESDFDSRLGGILLSEEGKKKFVRHFNERLEKTVKHRKLNRKVSYQRLIRLECYKLVKHFTAVEKYSPFVMWW,not soluble
17,MINDIKILGVGGSPRKNGNTDVLLDSFLKGAESAGVETKKVLLRDYSIEPCIGCERCRKTGTCTRFHDGMSLLYPEIEAAKGLTLGSPTYNYNVTALMKAFIDRLYPYYNFTNVRPRRYSSKLAGQGRKAIVFSVCEQLEIEEMGFTLGALGMPLEALGYEIVEKFPVTGYFDRGAVSRDEELLRKTFEAGKKMAEALHLEHHHHHH,not soluble
18,MGSDKIHHHHHHMDHQMEDLLEHWLPLADDAWVLAVITHIQGSSYRKPGAMMLFHEFGQGAGILSGGCLEADLRRHAQNAMLSHQIGCVSYDATDESDASYRLGCGGKVDIMLIPLLKENHDLGLVDIVQAFRKGQSGFYQLPLVPAGSDARSYSAQFYSSENVPFATADFAKAGVLSQPSGDTLIIPIRPRFHLGIFGGGIDAKPVAAIAHSLGWQVSVFDSRTAYARTADFPHAHIVKQSPDDAAALIANLDCAVVMHHNLTLDAAALKVIQPFALKYVALLGPAHRRDKVLSIAALNVDSFSGFFSAPAGLALGGELPSAIALSILAQCHGVLHGAAFSTLDGMMP,not soluble
19,MDLPVMPPVKPMLAKSVAKIPPGMHYEAKWDGFRAIVYRDGDEVELGSRTGKPLTRYFPELVVAVRERLPERCVVDGEIVIARDGHLDFDALTERIHPADSRVRTLAERTPASLVAFDLLALDDASLLDVGLADRRALLVRALSGVTPPVHVAPATDDIEVARRWFEQYEGAGLDGVVAKPLDLRYRQDERAMYKIKHERTADVVVAGYRFHKSGPVVGSLLLGLYDDRGLLQHVGVSAAFTMKRRAELVAELEPLRMDDARGHPWAAWAEEAAHESARLPGAPSRWSGKKDLSWVPLRPERVVEVAYDHMENGARFRHTARFRRWRPDRTPESCTYAQLEEPVRYDLAEILGGPLEHHHHHH,not soluble

# Reference: the DeepSol protein solubility set
